Laboratory results taken from US9359634B2, “Fast reaction kinetics of enzymes having low activity in dry chemistry layers” (Roche Diabetes Care, Inc., priority 2009, dated 2016).
Positions count from the first letter of the chain named. Where two headings read alike, the source gives them in different places.

B1: WT-GlucDH: wild type (native) glucose dehydrogenase from Bacillus subtilis (protein, listed as Bacillus subtilis)
chain: MYPDLKGKVVAITGAASGLGKAMAIRFGKEQAKVVINYYSNKQDPNEVKEEVIKAGGEAVVVQGDVTKEEDVKNIVQTAIKEFGTLDIMINNAGLENPVPSHEMPLKDWDKVIGTNLTGAFLGSREAIKYFVENDIKGNVINMSSVHEVIPWPLFVHYAASKGGIKLMTETLALEYAPKGIRVNNIGPGAINTPINAEKFADPKQKADVESMIPMGYIGEPEEIAAVAVWLASKESSYVTGITLFADGGMTKYPSFQAGRG
B2: GlucDH_E170K (protein, UniProt P12310 1-261, looked up, variant E170K)
Glucose 1-dehydrogenase: B1 chain with E170K, V229A, S236A, K252Q
B3: GlucDH_E170K_K252L (protein)
chain: B1 chain with E170K, K252L
modifications: Mutant of glucose dehydrogenase from Bacillus subtilis

Key:
Type in all cases: biochemical
[1] = molecular target: T1, glucose dehydrogenase from Bacillus subtilis (Bacillus subtilis, UniProt P12310, A229V/A236S/Q252K); conditions: test strips, coenzyme NAD, blood with adjusted glucose values; 1556.2 to 25.10 kU/100 g mass
[2] = system: glucose dehydrogenase from Bacillus subtilis; test: Enzyme activity before and after temperature stress (stress test) of clones; conditions: stress test: 30 min at 50° C.; tested in Escherichia coli XL1blue MRF′
Method: The PCR product obtained was transformed into Escherichia coli XL1blue MRF′. The cells were plated out, clones containing plasmid were cultured overnight and the enzyme activity was determined before and after temperature stress (stress test: 30 min at 50° C.).

[3] = system: glucose dehydrogenase from Bacillus subtilis; conditions: for activity, U/mg enzyme / activity, U/mg lyophilisate: cuvette, 25° C., 340 nm; for % U/mg lyophilisate relative to NAD: coenzyme carbaNAD relative to NAD; for activity with carbaNAD compared with activity with NAD: standardized conditions in a cuvette
[4] = molecular target: T1, glucose dehydrogenase from Bacillus subtilis; conditions: enzyme used in the test strips; coenzyme NAD
[5] = molecular target: T2, glucose dehydrogenase from Bacillus subtilis (Bacillus subtilis, UniProt P12310, A229V/A236S/E170K/Q252L); conditions: test strips, coenzyme carbaNAD, 4.60 kU/100 g mass; versus all wild type/NAD formulations of table 3
T2 sequence (P12310 whole entry E170K/A229V/A236S/Q252L): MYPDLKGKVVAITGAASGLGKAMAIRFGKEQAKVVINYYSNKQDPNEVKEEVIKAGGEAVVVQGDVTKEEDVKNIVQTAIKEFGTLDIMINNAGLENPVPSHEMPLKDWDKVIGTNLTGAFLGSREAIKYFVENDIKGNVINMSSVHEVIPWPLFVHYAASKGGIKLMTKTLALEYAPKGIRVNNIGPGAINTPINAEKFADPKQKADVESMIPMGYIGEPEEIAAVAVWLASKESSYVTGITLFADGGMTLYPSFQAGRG

[6] = molecular target: T2, glucose dehydrogenase from Bacillus subtilis; conditions: enzyme used in the test strips; coenzyme carbaNAD

Molecule	kinetics of the conversion of glucose [1]	residual activity after stress (%) [2] [%]	Vmax (U/mg lyophilsate) [3]	Km ([3]; coenzyme NAD) [µM]	activity, U/mg enzyme ([3]; coenzyme NAD) [U/mg enzyme]	activity, U/mg lyophilisate ([3]; coenzyme NAD) [U/mg lyophilisate]	Km ([3]; coenzyme carbaNAD) [µM]	Vmax (U/mg lyophilisate) ([3]; coenzyme carbaNAD)	% U/mg lyophilisate relative to NAD [3] [%]	activity, U/mg enzyme ([3]; coenzyme carbaNAD) [U/mg enzyme]	activity, U/mg lyophilisate ([3]; coenzyme carbaNAD) [U/mg lyophilisate]	activity with carbaNAD compared with activity with NAD [3]	lyophilisate activity (U/mg) [4] [U/mg]	kinetics of the conversion of glucose [5]	lyophilisate activity (U/mg) [6] [U/mg]
B1	worsened with a decreasing enzyme content	23	122	80	484	203	300	3	1.7	8.2	3.4	two orders of magnitude lower	251		
B2		80													
B3		130	144	70	270	167	1400	13	1.4	3.7	2.3	about two orders of magnitude lower		better kinetics	2.3
